Experimental data: patent US20220089678A1 (CARTESIAN THERAPEUTICS, published 2022)
Where a chain is given by its changes, count along the chain named.

T1: phycoerythrin (PE)-conjugated BCMA (Recombinant Human TNFRSF17 protein, Fc/His-tagged, R-PE labeled); Creative … (human, UniProt Q02223 1-54, R-PE labeled)
T1 construct: Bought reagent; also called BCMA-PE; not shown: Fc/His tag of the bought reagent
T1 sequence: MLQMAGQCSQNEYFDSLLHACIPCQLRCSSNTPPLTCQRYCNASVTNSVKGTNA

T2: human BCMA on cells (human, UniProt Q02223 1-184)
T2 sequence: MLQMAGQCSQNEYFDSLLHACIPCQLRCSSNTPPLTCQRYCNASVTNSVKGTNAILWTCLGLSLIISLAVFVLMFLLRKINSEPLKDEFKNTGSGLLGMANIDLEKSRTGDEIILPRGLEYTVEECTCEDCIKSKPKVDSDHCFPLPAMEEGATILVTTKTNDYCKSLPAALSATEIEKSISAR

B1: CAR comprising scFv-Y37 (SEQ ID NO: 60) (other)
chain: DIVLTQSPASLAVSPGQRATITCRASESVTILGSHLIHWYQQKPGQPPKLLIQLASNVQTGVPARFSGSGSGTDFTLTISSVEPEDTANYYCLQSRTIPRTFGQGTKVEIKGSTSGSGKPGSGEGSTKGQIQLVQSGPELKKPGGSVKISCKASGYTFTDYSINWVRQAPGKGLEWVGWINTETREPAYAYDFTGRFTFSADTSKSMAYLQINSLRAEDTAVYYCALDYSYAMDYWGQGTLVTVSS
notes: CAR on mRNA-electroporated human CD8+ T cells; Only the scFv is identified; not shown: rest of the CAR (hinge, transmembrane, cytoplasmic domains) not specified for this construct
B2: CAR comprising scFv-Y32 (SEQ ID NO: 57) (other)
chain: DIVLTQSPSSLSASVGDRATISCRASESVTILGSHLIHWYQQKPGQAPKLLIQLASNVQTGVPARFSGSGSGTDFTLTISSVEPEDVAVYYCLQSRTIPRTFGQGTKVEIKGSTSGSGKPGSGEGSTKGQIQLVQSGPELKKPGGSVKISCAASGYTFTDYSINWVRQAPGKGLEWVGWINTETREPAYAYDFRGRFTFSADTSKSTAYLQMNSLRAEDTAVYYCALDYSYAMDYWGQGTLVTVSS
notes: as for B1
B3: CAR comprising scFv-12′ (SEQ ID NO: 68) (other)
chain: B2 chain with R96K, T97N, I98F, D160S, S162D, S230L, A232S, M233L, Y235F
notes: as for B1
B4: CAR comprising scFv-21′ (SEQ ID NO: 70) (other)
chain: B2 chain with Q53N, Q59N
notes: as for B1
B5: CAR comprising scFv-13′ (SEQ ID NO: 69) (other)
chain: DIVLTQSPSSLSASVGDRATISCRASESVSFLGINLIHWYQQKPGQAPKLLIYLASNLETGVPARFSGSGSGTDFTLTISSVEPEDVAVYYCLQSRTLPRTFGQGTKVEIKGSTSGSGKPGSGEGSTKGQIQLVQSGPELKKPGGSVKISCAASGYTFTSYSINWVRQAPGKGLEWVGWINTETREPAYAQGFTGRFTFSADTSKSTAYLQMNSLRAEDTAVYYCALDYLYSLDFWGQGTLVTVSS
notes: as for B1

Target: T1, phycoerythrin (PE)-conjugated BCMA …
Assay: flow cytometry; CAR T cells stained with BCMA-PE, 3 days after electroporation
Experimental: (§1) CAR T cells obtained from the above-described process were tested for viability, CAR protein expression, BCMA binding, and cytotoxicity, i.e., the ability to kill BCMA+ myeloma (tumor) cells. Viability, CAR expression, and BCMA binding were determined by flow cytometry on a GUAVA® […]® 12HT Flow cytometer (EMD Millipore). To test viability, a sample of the CAR T cells was mixed with propidium iodide and run on the flow cytometer with electronic gating on fluorescence in the near infrared channel. To test CAR protein expression and BCMA binding, a sample of the CAR T cells was incubated with 0.4 ug/mL of phycoerythrin (PE)-conjugated BCMA (Recombinant Human TNFRSF17 protein, Fc/His-tagged, R-PE labeled; Creative Biomart, Shirley, N.Y.). CAR expression was assessed on the flow cytometer with electronic gating on fluorescence in the yellow channel to detect presence or absence of emission from BCMA-PE on CAR-positive and CAR-negative cells. BCMA binding was determined by measuring the intensity of fluorescence in the yellow channel to determine the relative quantity of BCMA-PE bound to labelled CAR-positive cells. For the viability, expression, and BCMA binding assays, CD8+ T cells electroporated without mRNA (CAR-negative T Cells) were tested as a parallel control.
Numerous CAR-encoding mRNA constructs were prepared using the mRNA construct of SEQ ID: 29 as a starting point (which encodes a CAR of sequence SEQ ID: 19 and comprises the scFv of sequence SEQ ID: 48). These constructs encoded the same or substantially the same amino acid residues in the scFv complementary-determining regions (CDRs) but varied with respect to the amino acid residues in the scFv framework regions. In making these variations, the experimenter's intent was to humanize the scFv framework regions without reducing BCMA-binding and tumor-killing properties of CAR T cells that express the CAR. For each of the mRNA constructs, CAR T cells were prepared by transfection into human CD8+ cells, substantially as described in Example 1. The CAR T cells made from each mRNA construct were then tested 3 days after electroporation for BCMA binding and/or tumor killing, as substantially described in Example 1.

Row | Binder | BCMA Binding | BCMA Binding (relative to SEQ ID: 54)
1 | B1 | 382 relative (SEQ ID: 48 = 100) | 
2 | B2 | 460 relative (SEQ ID: 48 = 100) | 124 relative to SEQ ID: 54 = 100

Target: T2, human BCMA on cells
Assay: cell-based or functional assay

Row | Binder | Killing (% killed), Effector:target ratio of 1:10 [%]
3 | B1 | 83
4 | B2 | 85

Target: T1, phycoerythrin (PE)-conjugated BCMA …
Assay: flow cytometry; CAR T cells stained with BCMA-PE, 3 days after electroporation
Remark: another data set of the same source
Experimental: as §1
For each of the mRNA constructs, CAR T cells were prepared by transfection into human CD8+ cells, as described in Example 1. The CAR T cells made from each mRNA construct were then tested 3 days after electroporation for BCMA binding and tumor killing, as described in Example 1.

Row | Binder | BCMA Binding (arbitrary units)
5 | B1 | 381
6 | B2 | 343
7 | B3 | 446
8 | B4 | 404
9 | B5 | 230

Target: T2, human BCMA on cells
Assay: cell-based or functional assay
Remark: another data set of the same source

Row | Binder | Killing (% killed), Effector:target ratio of 1:2 [%]
10 | B1 | 83
11 | B2 | 85
12 | B3 | 7
13 | B4 | 83
14 | B5 | 77
